Tests used:
GST-LEC2-B3 = target: T1, GST-LEC2-B3 (Arabidopsis thaliana, UniProt Q1PFR7); assay: EMSA; BLI: Octet Qke, 1x Kinetics Buffer (ForteBio), pH 7.0, 0.05 uM biotinylated probe on streptavidin, temperature not stated; EMSA: MgCl2, 0.05% NP-40, 0.5 nM probe, 15 ul, room temperature 20 min, 6% gel in 0.5x TBE (rest of buffer not in material); settings: protein: recombinant; tags: GST (N-terminal, pGEX-2T); label: 5' biotin on strand 1 (strand 2 oligo also named 5-Biotin-probe); blunt
T1 chain: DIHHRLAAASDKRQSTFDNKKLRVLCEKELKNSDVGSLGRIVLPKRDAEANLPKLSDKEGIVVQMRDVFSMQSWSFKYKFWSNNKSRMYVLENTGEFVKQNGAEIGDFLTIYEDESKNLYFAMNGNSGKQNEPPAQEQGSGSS

GST-FUS3-B3 = target: T2, GST-FUS3-B3 (Arabidopsis thaliana, UniProt Q9LW31); assay: as above; settings: protein: recombinant; tags: GST (N-terminal, pGEX-2T); label: 5' biotin on strand 1 (strand 2 oligo also named 5-Biotin-probe); blunt
T2 chain: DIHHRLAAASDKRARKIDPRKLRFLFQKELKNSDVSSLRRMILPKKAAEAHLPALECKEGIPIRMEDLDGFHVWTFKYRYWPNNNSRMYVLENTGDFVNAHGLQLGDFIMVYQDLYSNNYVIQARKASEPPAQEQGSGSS

B1: Sph2 probe (dsDNA)
DNA 1: CACGGATCATGCATGGACGACACGGATCATGCATGGACGACACG
DNA 2: CGTGTCGTCCATGCATGATCCGTGTCGTCCATGCATGATCCGTG
Kd (GST-LEC2-B3): 198 nM
Kd (GST-FUS3-B3): 1.28 nM
